From PMC6821831, “Colorimetric Assay Reports on Acyl Carrier Protein Interactions” (Scientific Reports, 2019)
Blank lines part the entries; values can stand above or below the binder they belong to.

B4: FabF (E. coli ketoacyl synthase) (enzyme, UniProt P0AAI5 1-413, looked up)
chain: MSKRRVVVTGLGMLSPVGNTVESTWKALLAGQSGISLIDHFDTSAYATKFAGLVKDFNCEDIISRKEQRKMDAFIQYGIVAGVQAMQDSGLEITEENATRIGAAIGSGIGGLGLIEENHTSLMNGGPRKISPFFVPSTIVNMVAGHLTIMYGLRGPSISIATACTSGVHNIGHAARIIAYGDADVMVAGGAEKASTPLGVGGFGAARALSTRNDNPQAASRPWDKERDGFVLGDGAGMLVLEEYEHAKKRGAKIYAELVGFGMSSDAYHMTSPPENGAGAALAMANALRDAGIEASQIGYVNAHGTSTPAGDKAEAQAVKTIFGEAASRVLVSSTKSMTGHLLGAAGAVESIYSILALRDQAVPPTINLDNPDEGCDLDFVPHEARQVSGMEYTLCNSFGFGGTNGSLIFKKI
notes: E. coli ketoacyl synthase FabF; Sediments mostly as a dimer in SV-AUC; also called KS; E. coli KS FabF; source: E. coli BL21, purified (Ni-NTA)

What was measured:
[1] = target: T1, holo-AcpP (E. coli FAS acyl carrier protein, 4'-phosphopantetheine arm installed) (E. coli), P0A6A8; assay: AUC; sedimentation velocity of each protein alone; FabF 10-36 uM, holo-AcpP 345-488 uM, holo-ACT ACP (wild type) 98-196 uM; 20 mM Tris-HCl pH 8.0, 150 mM NaCl, 1 mM DTT, 20 C; settings: remark: other sources report otherwise
T1 chain: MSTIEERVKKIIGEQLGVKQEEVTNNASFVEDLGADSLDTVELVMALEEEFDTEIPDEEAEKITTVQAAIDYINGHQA

[2] = target: B4; assay: AUC; sedimentation velocity titration; FabF constant at 16 uM, AcpP 0-230 uM or ACT ACP 0-250 uM; 20 mM Tris-HCl pH 8.0, 150 mM NaCl, 1 mM DTT, 20 C; s(w) and EPT s(w) fast isotherms fitted globally to A + B <-> AB; settings: both partners purified
[3] = target: B4; assay: colorimetric read-out of the cross-linking (TNB2− release, A412); ACP-TNB− mixed with FabF at ACP-TNB:FabF molar ratios 0.2:1 to 3:1; 50 mM sodium phosphate pH 7.6, 20 min, room temperature; A412 of the reaction mixture; settings: both partners purified
[4] = target: the molecule itself; assay: AUC; sedimentation velocity of each protein alone; FabF 10-36 uM, holo-AcpP 345-488 uM, holo-ACT ACP (wild type) 98-196 uM; 20 mM Tris-HCl pH 8.0, 150 mM NaCl, 1 mM DTT, 20 C

stoichiometry N [1]: 4
B1: holo-AcpP (E. coli FAS acyl carrier protein, 4'-phosphopantetheine arm installed), P0A6A8 1-78 (natural protein)
chain: MSTIEERVKKIIGEQLGVKQEEVTNNASFVEDLGADSLDTVELVMALEEEFDTEIPDEEAEKITTVQAAIDYINGHQA
modifications: here or on the partner: 4'-phosphopantetheine (Ppant) arm on the conserved serine at the N-terminus of helix II (holo form); 4'-phosphopantetheine (Ppant) arm on the conserved serine at the N-terminus of helix II (holo form)

Kd [2]: 6.4 ± 2 µM
B2: holo-AcpP (E. coli FAS acyl carrier protein, 4'-phosphopantetheine arm installed) (natural protein, UniProt P0A6A8 1-78, looked up)
chain: MSTIEERVKKIIGEQLGVKQEEVTNNASFVEDLGADSLDTVELVMALEEEFDTEIPDEEAEKITTVQAAIDYINGHQA
modifications: 4'-phosphopantetheine (Ppant) arm on the conserved serine at the N-terminus of helix II (holo form)
notes: E. coli fatty acid synthase acyl carrier protein AcpP, UniProt P0A6A8; N- and C-terminal His6, from pKJ5535 or pTL14; AUC section gives 12.3 kDa for AcpP; also called E. coli ACP; source: E. coli BAP1, purified (Ni-NTA); converted to holo form on resin with Sfp R4-4 and coenzyme A

stoichiometry N [3]: 1
B3: AcpP-TNB− (E. coli AcpP with the Ppant thiol as mixed disulfide with 2-nitro-5-thiobenzoate) (natural protein, UniProt P0A6A8 1-78, looked up)
chain: MSTIEERVKKIIGEQLGVKQEEVTNNASFVEDLGADSLDTVELVMALEEEFDTEIPDEEAEKITTVQAAIDYINGHQA
modifications: 4'-phosphopantetheine arm on the conserved serine; its terminal thiol is a mixed disulfide with 2-nitro-5-thiobenzoate (TNB−)
notes: E. coli fatty acid synthase acyl carrier protein AcpP, UniProt P0A6A8; also called ACP-TNB−; AcpP-TNB− adduct; source: E. coli BAP1, purified (Ni-NTA), converted to holo form with Sfp R4-4, treated with DTNB, desalted (PD-10)

Binder: B4
stoichiometry N [4]: 2
